Measured values taken from patent US11571484B2, “Compositions that target tumor-associated macrophages and methods of use therefor” (Sanford Burnham Prebys Medical Discovery Institute, priority 2017, dated 2023).
Ends that are not written are not given here. FAM = 5(6)-carboxyfluorescein; Ahx = NCCCCCC(=O)O

Target: T1, recombinant mouse macrophage mannose receptor rmMMR/CD206 (Mus musculus, UniProt Q61830)
T1 construct: purchased R&D Systems 2535-MM-050
T1 sequence (Q61830 20-1456): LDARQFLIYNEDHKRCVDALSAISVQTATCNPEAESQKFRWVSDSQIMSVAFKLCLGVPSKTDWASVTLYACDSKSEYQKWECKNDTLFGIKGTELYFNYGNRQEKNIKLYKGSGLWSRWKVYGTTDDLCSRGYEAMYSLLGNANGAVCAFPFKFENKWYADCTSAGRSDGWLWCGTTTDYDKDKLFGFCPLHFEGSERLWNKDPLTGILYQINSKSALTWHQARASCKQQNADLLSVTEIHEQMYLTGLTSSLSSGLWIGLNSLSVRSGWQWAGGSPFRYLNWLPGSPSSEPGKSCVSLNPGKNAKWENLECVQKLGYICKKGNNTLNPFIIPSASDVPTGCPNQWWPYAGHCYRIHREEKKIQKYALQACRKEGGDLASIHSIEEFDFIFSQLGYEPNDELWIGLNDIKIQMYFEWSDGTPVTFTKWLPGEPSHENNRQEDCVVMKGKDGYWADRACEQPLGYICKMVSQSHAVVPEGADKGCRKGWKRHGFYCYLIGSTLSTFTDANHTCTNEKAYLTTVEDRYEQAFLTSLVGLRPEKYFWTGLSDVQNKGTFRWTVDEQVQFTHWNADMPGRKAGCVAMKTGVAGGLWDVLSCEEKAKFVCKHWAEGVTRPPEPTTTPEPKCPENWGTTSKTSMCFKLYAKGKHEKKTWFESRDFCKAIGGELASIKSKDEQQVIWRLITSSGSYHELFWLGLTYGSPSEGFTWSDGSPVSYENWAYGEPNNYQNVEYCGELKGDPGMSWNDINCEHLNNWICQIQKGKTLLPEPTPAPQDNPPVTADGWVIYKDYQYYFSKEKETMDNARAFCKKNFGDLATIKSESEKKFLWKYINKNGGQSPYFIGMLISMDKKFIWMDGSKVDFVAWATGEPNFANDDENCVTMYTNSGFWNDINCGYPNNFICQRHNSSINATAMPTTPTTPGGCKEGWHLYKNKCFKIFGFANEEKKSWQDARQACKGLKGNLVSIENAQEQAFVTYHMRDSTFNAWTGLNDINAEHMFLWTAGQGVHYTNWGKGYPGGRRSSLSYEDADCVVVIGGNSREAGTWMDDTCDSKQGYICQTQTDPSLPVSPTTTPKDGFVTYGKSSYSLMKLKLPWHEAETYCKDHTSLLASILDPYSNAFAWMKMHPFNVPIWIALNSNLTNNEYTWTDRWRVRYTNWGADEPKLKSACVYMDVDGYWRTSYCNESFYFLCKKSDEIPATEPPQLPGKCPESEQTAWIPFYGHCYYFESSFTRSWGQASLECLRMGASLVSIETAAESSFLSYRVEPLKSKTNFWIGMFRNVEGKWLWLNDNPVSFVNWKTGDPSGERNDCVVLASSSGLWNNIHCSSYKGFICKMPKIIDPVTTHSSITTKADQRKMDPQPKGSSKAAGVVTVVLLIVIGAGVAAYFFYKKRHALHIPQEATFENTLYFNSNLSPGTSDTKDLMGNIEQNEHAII
Assay: Fluorescence anisotropy assay with mouse recombinant CD206
Assay type: binding
Details: 50 nM FAM peptide, 1 μM protein, 25 °C
Protocol: The stocks of fluorescent ligands (FAM-UNO, FAM-CSPGAK and FAM-CPMTDNE) in mQ water were stored at −20° C. […], 150 mM NaCl, 1 mM CaCl2, 0.1% Pluronic F-127, pH 7.4) on the day of experiment. The concentration of fluorescent ligands was determined by absorbance of FAM (E495=75000 M^−1 cm^−1).
The recombinant mouse macrophage mannose receptor rmMMR/CD206 (R&D Systems, catalog number: 2535-MM-050) and recombinant mouse CD163 (R&D Systems, catalog number: 7435-CD-050) were reconstituted at 1 mg/ml in IB, aliquoted and stored at −20° C. To generate linearized version of cyclic FAM-UNO peptide, the peptide at 1 mM concentration was preincubated for 24 h at room temperature in a dark place with 3 mM DTT and diluted with IB 2×10^5 times before the FA assay. The control experiment with FAM-CPMTDNE peptide (FIG. 22) was performed to rule out the possibility of disulphide bond formation, which could affect the binding properties of linear peptides. Initially, the peptide was preincubated in DMSO for 4 days at room temperature to enhance the disulphide bond formation, and then diluted in IB buffer with 3 mM DTT, and the disappearance of preformed dimer was observed as a change in FA signal.
In all experiments, FA signal measurements were done under pseudo first-order conditions with 50 nM singly labelled FAM peptides and 1 μM proteins. […] Assays were carried out in kinetic mode in a total volume of 30 μl at 25° C. on the PHERAstar (BMG Labtech, Germany) microplate reader using an optical module with excitation and emission filters of 485 nm (slit 10 nm) and 520 nm (slit 10 nm), respectively. Dual emission detection mode allows simultaneous recording of intensities that are parallel (l) and perpendicular (1) to the plane of excitation light. […] The background fluorescence (receptor and buffer components in the absence of fluorescent ligand) was subtracted independently from all intensity channels. FA signals at time t after initiation of binding reaction was calculated as parameters r(t) from the equation: […]

Substance | change in fluorescence anisotropy (interaction) with mouse recombinant CD206
FAM-CSPGAK: FAM-labeled linear CSPGAK (SEQ ID NO: 6) (not fully specified; FAM label) | clear time-dependent increase of anisotropy
FAM-UNO: FAM-labeled UNO peptide CSPGAKVRC (SEQ ID NO: 1); 5(6)-carboxyfluorescein with 6-aminohexanoic acid spacer at the N-terminus ({FAM-Ahx}-CSPGAKVRC; cysteine pairing not given here) | did not cause a change in the fluorescence anisotropy
